Experimental findings from the supplement of paper PMC9170038 are described below.

This series relates to K4 kissing-loop RNA reporter. Put plainly: apparent KD of K4 kissing-loop reporter; higher = weaker reporter binding. Particulars: Eterna round: R107. As for the experimental part: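 RNA-MaP round R107: designed RNA switches with theophylline, tryptophan, arginine or FMN aptamers are transcribed on-chip within common flanks. They are titrated with a labelled K4 kissing-loop RNA reporter in RNA-MaP buffer (100 mM Tris pH 7.5, 80 mM KCl, 4 mM MgCl2), without ligand or with the indicated ligand. Median apparent KD per design.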

Where [1] appears, read: input ligand: theophylline 20 uM.
The mark [2] stands for this setting: input ligand: tryptophan 2.4 mM.
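Further: bound reporter read as fluorescence of individual clusters on recovered sequencing chips by microscopy, with normalized cluster intensities fitted with a binding model.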

With “AACGGCCAGUCGGCCGCCACUCCAAGCAGUGAUGUUGCUAAGUUUCUAAAAGAGUGAUGUUCUUAGAGGACCGGGACUGAUGUAA [Exclusion Tryptophan B Gf 6]”, the “apparent KD of K4 kissing-loop reporter” value is, setting by setting: (input ligand: FMN 200 uM) 130 nM; (input ligand: arginine 13.2 mM) 155 nM; (input ligand: none) 154 nM; under setting [1], 161 nM; under setting [2], 104 nM.
In the same order, the values of “AACGUUUUGUGAAGGAGCGCGAAAAGCAGUGAUGUUGCUUACUUACAAUUUAGAUUUAACACGCAGGUAGGUCGCACAAUACGUA [JR_SSArginiB_Sub016]” are 252 nM, 225 nM, 266 nM, 259 nM and 219 nM.
With “AACGUUUUGUGAAGGAGCGCGAUAAGCAGUGAUGUUGCUUACUAUCAAUUUAUAUUUUACACGCAGGUAGGUCGCACAAUACGUA [JR_SSArginiB_Sub018]”, the “apparent KD of K4 kissing-loop reporter” value (input ligand: FMN 200 uM) came out at 159 nM; the “apparent KD of K4 kissing-loop reporter” value (input ligand: arginine 13.2 mM) stood at 135 nM; the “apparent KD of K4 kissing-loop reporter” value (input ligand: none) amounted to 160 nM; the “apparent KD of K4 kissing-loop reporter” value under setting [1] came to 148 nM; the “apparent KD of K4 kissing-loop reporter” value under setting [2] was 163 nM.
In the same order, the values of “AACUGGGUUCGUGAUACCAGCUCACACAUGAGUGAUGUUCAUGUAGUGGGUAAAAUGUGGAGCCCUUGGCAGCACUGUGACCACG [XTheo-B1]” are 91.5 nM, 76.4 nM, 81.2 nM, 67.5 nM and 81.3 nM.
The corresponding values for “AACUGUCAAGGACAACAUUACUGAAGUGAUACCAGCAUCGAAAGAUGCCCUUGGCAGCACUAACUUGCAGUGAUGUUGCAAGUAA [BrourdMod 3 - Jieux - Exclusion - Theophylline A]” are 207 nM, 165 nM, 184 nM, 202 nM and 190 nM.
In the same order, the values of “AACUGUCAAGGACAACAUUACUGGAGUGAUACCAGCAUCGAAAGAUGCCCUUGGCAGCACUAACUUGCAGUGAUGUUGCAAGUAA [BrourdMod 6 - Jieux - Exclusion - Theophylline A]” are 208 nM, 174 nM, 196 nM, 192 nM and 191 nM.
As for “AACUUUUAAUGAAUUACAUUUUAUUUAUCUCGAGGACCGGUACGGCCGCCACUCGUACUAUAGUGAUGUUAUAGAUAAGUCCUAA [JR_ExcTryptoA_Sub019]”, the “apparent KD of K4 kissing-loop reporter” value by setting is: (input ligand: FMN 200 uM) 149 nM; (input ligand: arginine 13.2 mM) 212 nM; (input ligand: none) 179 nM; under setting [1], 233 nM; under setting [2], 73.8 nM.
With “AACUUUUAAUGAAUUACAUUUUAUUUUUCUCGAGGACCGGUACGGCCGCCACUCGUACUAUAGUGAUGUUAUAGAUAAGUCCUAA [JR_ExcTryptoA_Sub020]”, the “apparent KD of K4 kissing-loop reporter” value runs as follows: (input ligand: FMN 200 uM) 124 nM; (input ligand: arginine 13.2 mM) 182 nM; (input ligand: none) 142 nM; under setting [1], 179 nM; under setting [2], 68.7 nM.
In the same order, the values of “AAGAAGAAUGGAAGGAGCGAGCAGAUAUAACCAGUGAUGUUGGAAAGCCUUAUUGCUUAAGCUCAGGUAGGUCGCCAAGAAGAGA [whbob_Ex_Arginine_B_2t152]” are 179 nM, 159 nM, 179 nM, 192 nM and 184 nM.
Take “AAGAAGGUCAAAGACCUUCGUGCACGUGAUACCAGUCGCGAAAGCGACCCUUGGCAGCACGGCAGUGAUGUUGCCAAGUGCACAA [#12 K4 Theophylline A Same State]”: the “apparent KD of K4 kissing-loop reporter” value turned out to be 407 nM (input ligand: FMN 200 uM); 249 nM (input ligand: arginine 13.2 mM); 498 nM (input ligand: none); 664 nM under setting [1]; 545 nM under setting [2].
In the same order, the values of “AAGAGCUAGGCGGCCGCCACUAGAUGUGAACACAUACAAGCCAGUGAUGUUGGUAUGAUGGACAGUAGGACCGGGCCUAGCUGAA [Exclusion - Tryptophan B (Freestyle 9)]” are 353 nM, 377 nM, 407 nM, 368 nM and 421 nM.
“AAGAGCUAGGCGGCCGCCACUAGAUGUGAACACAUACAAGCCAGUGAUGUUGGUAUGAUGGACGGUAGGACCGGGCCUAGCUGAA [Exclusion - Tryptophan B (Freestyle 12)]”: the “apparent KD of K4 kissing-loop reporter” value came to 290 nM (input ligand: FMN 200 uM); 464 nM (input ligand: arginine 13.2 mM); 394 nM (input ligand: none); 381 nM under setting [1]; 294 nM under setting [2].
With “AAGAGGACCAACAUCACUAGUCCUCGAAUACGAGGACCGGUACGGCCGCCACUCGAUAACUUGCAGUGAUGUUGCAAGUAAGAAU [(T)''-(K)'-(T)'-(T1)-(T2)-(K1)-(K2)_Design3]”, the “apparent KD of K4 kissing-loop reporter” value reads like this: (input ligand: FMN 200 uM) 369 nM; (input ligand: arginine 13.2 mM) 253 nM; (input ligand: none) 307 nM; under setting [1], 345 nM; under setting [2], 439 nM.
“AAGAGUAAACUCUAACUCCUUAAGUCCGAAGGAGCGACUCAAUGGUCAGGUAGGUCGCGGACAAUCCUAGUGAUGUUAGGAUCUG [Arg A SS t5]”: the “apparent KD of K4 kissing-loop reporter” value amounted to 252 nM (input ligand: FMN 200 uM); 220 nM (input ligand: arginine 13.2 mM); 268 nM (input ligand: none); 260 nM under setting [1]; 211 nM under setting [2].
With “AAGCAGUCACUCGAAACCAUCGAAGAUGGACGAGGACCGGUACGGCCGCCACUCGGAGUGAUGUUCCGAAGACUGCAAAAUAAAA”, the “apparent KD of K4 kissing-loop reporter” value turned out to be 373 nM (input ligand: FMN 200 uM); 374 nM (input ligand: arginine 13.2 mM); 374 nM (input ligand: none); 434 nM under setting [1]; 370 nM under setting [2].
Turning to “AAGCAGUCACUCGAAUCCAUCGAAGAUGGGCGAGGACCGGUACGGCCGCCACUCGGAGUGAUGUUCCGAAGACUGCAAAAUAAAA”, the “apparent KD of K4 kissing-loop reporter” value was 262 nM (input ligand: FMN 200 uM); 264 nM (input ligand: arginine 13.2 mM); 419 nM (input ligand: none); 786 nM under setting [1]; 378 nM under setting [2].
